From patent publication US20150004190A1

Assays:
[1] = target: Peptide ELDKWA (HIV-1); experiment: ELISA on coated peptide (FIG. 1)
[2] = target: Peptide ELDKWA (HIV-1); experiment: ELISA on coated peptide
[3] = target: Peptide ELDKWA (HIV-1); experiment: competitive ELISA, competitor 0.027 nM 2F5 IgA2 detected with anti-human IgA

| Binder | antibody concentration of equivalent binding activity [1] | fold higher efficacy as compared to IgG1 [2] | concentration needed to compete [3] |
| --- | --- | --- | --- |
| 2F5 IgA2 (antibody, V domains shown) VH: RITLKESGPPLVKPTQTLTLTCSFSGFSLSDFGVGVGWIRQPPGKALEWLAIIYSDDDKRYSPSLNTRLTITKDTSKNQVVLVMTRVSPVDTATYFCAHRRGPTTLFGVPIARGPVNAMDVWGQGITVTI VL: ALQLTQSPSSLSASVGDRITITCRASQGVTSALAWYRQKPGSPPQLLIYDASSLESGVPSRFSGSGSGTEFTLTISTLRPEDFATYYCQQLHFYPHTFGGGTRVDVR | 0.05 nM | > 100 fold | – |
| 2F5 IgG1 (antibody, V domains shown) VH: RITLKESGPPLVKPTQTLTLTCSFSGFSLSDFGVGVGWIRQPPGKALEWLAIIYSDDDKRYSPSLNTRLTITKDTSKNQVVLVMTRVSPVDTATYFCAHRRGPTTLFGVPIARGPVNAMDVWGQGITVTI VL: ALQLTQSPSSLSASVGDRITITCRASQGVTSALAWYRQKPGSPPQLLIYDASSLESGVPSRFSGSGSGTEFTLTISTLRPEDFATYYCQQLHFYPHTFGGGTRVDVR | 6.25 nM | – | 25 nM |
